Source: patent publication US20210253725A1 (BIONTECH, published 2021)

B1: P018.S.12.A.D04 (antibody, V domains shown)
VH: QSVEESGGRLVTPGTPLTLTCTVSGIDLSSYAMGWVRQAPGKGLEYIGIISYDGSTYYASWAKGRFTISKTSTTVDLKITSPTTEDTATYFCARVDYGDYNFALWGQGTLVTVSS
VL: DVVMTQTPASVSEVVGGTVTIKCQASESISNYLAWYQQKPGQPPKLLIYAASNLASGVPSRFSGSGSGTQFTLTISDLESADAATYYCQCTYYVSSYFAFSGGTEVVVK
notes: V regions on human Ig constant parts; also called AB134_69
B2: P018.S.12.A.F04 (antibody, V domains shown)
VH: QQQLEESGGGLVKPGGTLTLTCTASGIDFSSYWMWWVRQPPGKGLEWVACIYNGDGSTYYASWAKGRFTISKTSSTTVTLQMTSLTAADTATYFCARDFHLWGPGTLVTVSS
VL: AQVLTQTASPVSAAVGSTVTINCQASQNIYKNNYLSWYQQKPGQPPKGLIYSASTLDSGVPLRFSGSGSGTKFTLTISDVQSDDAATYYCLGSVACSGPDCIVFGGGTEVVVK
notes: V regions on human Ig constant parts; also called AB134_80
B3: P018.S.11.A.H02 (antibody, V domains shown)
VH: QSVEESGGRLVTPGTPLTLTCTVSGFSLSNYAMSWVRQAPGKGLEWIGIISPSGNTYYANWAKGRFTISKTSTTVDLKITSPTTEDTATYFCAREGALYDDYGDYVDAFDPWGPGTLVTVSS
VL: AAVLTQTPSPVSAAVGGTVSISCQSSESVYNNNWLSWYQQKPGQPPKLLIYRASTLASGVPSRFKGSGSGTQFTLTISDVQSDDAATYYCAGGYSSSSDINAFGGGTEVVVK
notes: V regions on human Ig constant parts; also called AB134_46
B4: P018.S.11.A.B05 (antibody, V domains shown)
VH: QSVEESGGRLVTPGTPLTLTCTVSGFSLSTYNVAWVRQAPGKGLQYIGIMAFDGNTYYASWATGRFTISRTSTTVNLKITSPTTEDTATYFCCKGDPSSDTGTTLWGQGTLVTVSS
VL: AAVLTQTPSSASEPVGGTVTIKCQSSPSVYSNNWLAWFQQKPGQRPKLLIYAAAKLASGVPSRFRGSGSGTQFTLTISDVQSDDAATYYCAGGFNSDSDTTFGGGTEVVVK
notes: V regions on human Ig constant parts; also called AB134_26
B5: P018.S.12.A.C04 (antibody, V domains shown)
VH: QSLEESGGRLVTPGGSLTLTCTVSGIDLSRWTMSWVRQAPGKGLEWIGLIYASDDTVYASWAKGRFTISKTSTTVDLKITSPTTEDTATYFCVRVYGSTSGYYDLWGQGTLVTVSS
VL: DVVMTQTPASVSEPVGGTVTIKCQASQSISNWLAWYQQKPGQPPKLLIYYASTLASGVPSRFKGSGSGTQFTLTISDLESADAATYYCQNFGDGNSIGHAFGGGTEVVVK
notes: V regions on human Ig constant parts; also called AB134_64
B6: P018.S.12.A.H04 (antibody, V domains shown)
VH: QSVEESGGRLVTPGTPLTLTCTASGFSLSDYYMSWVRQAPGKGLEWIGFMNSGGNAYYASWASGRFTISKTSTTVDLKITSPTTEDTATYFCVRDLSRFSLWGRGTLVIVSS
VL: AAVLTQTPSPVSAAVGGTVTINCQASPSVYSDYLSWFQQKPGQAPKLLIYWASTLTSGVPSRFSGSGSGTQFTLTISDVQSDDAATYYCAGGYSGNSDVWAFGGGTEVVVK
notes: V regions on human Ig constant parts; also called AB134_90
B7: P018.S.11.A.H06 (antibody, V domains shown)
VH: QSLEESGGRLVTPGTPLTLTCTVSGFSLSTYAMIWVRQAPGEGPEWIGLIAGGGNTWYASWAKGRFTISKTSTTVDLKITSPTTEDTATYFCARADYLGYGNNFWGQGTLVTVSS
VL: AAVLTQTPSPVSAAVGGTVTINCQASQSVYNNNYLAWYQQKPGQPPKLLIYWASNLASGVPSRFSGSGSGTQFSLTISGVQSDDAATYYCLGVYDDDADNGFGGGTEVVVK
notes: V regions on human Ig constant parts; also called AB134_49
B8: P018.S.12.A.A03 (antibody, V domains shown)
VH: LEQSAGGAEGGLVKPGGSLELCCKASGFSLNNNYWICWVRQAPGKGLEWIGCIYVGVVSLTYSASWVNGRFTLSKDIDQSTGCLQLNSLTAADTAMYYCARSLYSGYAGYGDGYYGMDLWGPGTLVTVSS
VL: GVVMTQTPASVSDPVGGTVTIKCQASQSIGSDLAWYQQKPGQPPKLLIYAASNLASGVSSRFSGIRSGTEFTLTISDLESADAATYYCQCTDYVDSHDTFGGGTEVVVK
notes: V regions on human Ig constant parts; also called AB134_52

What was measured:
[1] = molecular target: T1, CD134 expressed on the cell surface of HT1080_OX40 cells (human, UniProt P43489 29-277); test: cell-based or functional assay
T1 sequence (looked up): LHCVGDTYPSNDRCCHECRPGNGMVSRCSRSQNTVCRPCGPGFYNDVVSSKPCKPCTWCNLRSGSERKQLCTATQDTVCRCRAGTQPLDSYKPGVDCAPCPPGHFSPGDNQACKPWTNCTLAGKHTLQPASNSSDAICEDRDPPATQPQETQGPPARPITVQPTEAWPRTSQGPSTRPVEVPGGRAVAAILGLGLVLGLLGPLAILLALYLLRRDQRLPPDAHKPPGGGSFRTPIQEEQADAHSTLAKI

[2] = molecular target: T1, CD134 expressed on the cell surface of …; test: HT1080_OX40 cells, imaging
[3] = molecular target: T2, CD134 protein (His-tagged, Sino Biological Inc. 10481-H08H) (human, UniProt P43489 29-216); test: ELISA, coated His-tagged CD134
T2 construct: bought protein coated on ELISA plates; also called OX40; TNFRSF4; not shown: His tag
T2 sequence (looked up): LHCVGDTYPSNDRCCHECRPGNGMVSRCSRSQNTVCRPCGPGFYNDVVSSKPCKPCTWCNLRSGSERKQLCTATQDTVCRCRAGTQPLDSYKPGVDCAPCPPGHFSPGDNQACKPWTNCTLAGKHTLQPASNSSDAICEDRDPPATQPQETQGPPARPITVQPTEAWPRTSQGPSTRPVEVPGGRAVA
Note: test concentration or dose not given here.

Functional assay Cross-linked by F(ab′)2 fragment IL-8 [1]	Functional assay IL-8 [1]	Cellular binding assay [RFU] [2]	ELISA [abs. corr.] [3]	Binder
1.86 abs. corr.	0.139 abs. corr.	488 RFU	2.23 abs. corr.	B1
1.95 abs. corr.	0.289 abs. corr.	551 RFU	2.11 abs. corr.	B2
1.8 abs. corr.	0.783 abs. corr.	515 RFU	2.8 abs. corr.	B3
1.83 abs. corr.	1.36 abs. corr.	456 RFU	1.65 abs. corr.	B4
1.83 abs. corr.	0.215 abs. corr.	509 RFU	2.04 abs. corr.	B5
1.89 abs. corr.	-0.121 abs. corr.	295 RFU	1.98 abs. corr.	B6
1.95 abs. corr.	0.567 abs. corr.	498 RFU	2.52 abs. corr.	B7
1.95 abs. corr.	0.393 abs. corr.	493 RFU	1.44 abs. corr.	B8
